T1: recombinant human B7-H3 His-tag (R&D 1949-B3-050) (Homo sapiens, UniProt Q5ZPR3-2 29-245)
T1 sequence: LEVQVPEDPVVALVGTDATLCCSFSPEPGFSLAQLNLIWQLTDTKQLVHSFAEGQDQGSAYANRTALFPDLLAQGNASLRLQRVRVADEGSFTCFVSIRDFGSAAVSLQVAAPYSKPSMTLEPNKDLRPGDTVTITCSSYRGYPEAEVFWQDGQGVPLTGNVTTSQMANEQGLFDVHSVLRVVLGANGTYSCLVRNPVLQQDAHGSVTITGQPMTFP


Molecular target: T1, recombinant human B7-H3 His-tag (R&D …)
Assay: dot blot; FITC aptamer, 10 ng protein on membrane; ABB: AWB (composition not given) + 0.1 mg/ml yeast tRNA, 0.1 mg/ml salmon sperm DNA, 5% FBS, 1 mg/ml BSA; 60 min; 0-500 nM aptamer; flow binding assay on ice, dot-blot temperature and pH not stated
Conditions: protein: commercial; tags: C-terminal His; label: FITC or biotin

| Binder | Kd |
| --- | --- |
| VRF-HS_B7H3-01 (ssDNA) DNA: TAGGGAAGAGAAGGACATATGATACAGCACGGTATGACGAGTCCATTGTGTGTGCAGCTCGCTAATTGACTAGTACATGACCACTT | 19.2 ± 4.4 nM |
| VRF-HS_B7H3-05 (ssDNA) DNA: TAGGGAAGAGAAGGACATATGATTGAGAAGTCACGCCACTTACCTGCGCTCAAAACCTCAGAATTGACTAGTACATGACCACTT | 32.7 ± 4.56 nM |
| VRF-HS_B7H3-04 (ssDNA) DNA: TAGGGAAGAGAAGGACATATGATTGCCCCTGACACTTACACGCCACTATCAAGGCACACGCCATTGACTAGTACATGACCACTT | 31.5 ± 4.02 nM |
| VRF-HS_B7H3-03 (ssDNA) DNA: TAGGGAAGAGAAGGACATATGATATAAGTGACACATCAATCTCATGCGGATGAACCAGTGCGTTTGACTAGTACATGACCACTT | 22.7 ± 3.71 nM |
| VRF-HS_B7H3-02 (ssDNA) DNA: TAGGGAAGAGAAGGACATATGATCGCCCCTCTTTTCGATTTCAAGCTCCTAACCCACACCTCTTTGACTAGTACATGACCACTT | 24.6 ± 3.69 nM |
